Measurements: the supplement of paper PMC7877785
± gives the uncertainty stated by the source.

Test: self-splicing fitness, log relative to wild type (ln ratio); higher = more splicing; Tetrahymena group I intron in knt gene, E. coli kanamycin selection, DiMSum; sequences stand for … in CUCUCU…GGAGGGAAAAGUUAUCAGGCAUGCACCUGGUAGCUAGUCUUUAAACCAAUAGAUUGCAUCGGUUUAAAAGGCAAGACCGUCAAAUUGCGGGAAAGGGGUCAACAGCCGUUCAGUACCAAGUCUCAGGGGAAACUUUGAGAUGGCCUUGCAAAGGGUAUGGUAAUAAGCUGACGGACAUGGUCCUAACCACGCAGCCAAGUCCUAAGUCAACAGAUCUUCUGUUGAUAUGGAUGCAGUUCACAGACUAAAUGUCGGUCGGGGAAGAUGUAUUCUUCUCAUAAGAUAUAGUCGGACCUCUCCUUAAUGGGAGCUAGCGGAUGAAGUGAUGCAACACUGGAGCCGCUGGGAACUAAUUUGUAUGCGAAAGUAUAUUGAUUAGUUUUGGAGUACUCGUGGUCG
Procedure, shortened: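 DiMSum derived fitness as the error-weighted combination of fold changes across replicates, kanamycin versus no kanamycin, normalised to wild type. E. coli BL21(DE3) held the library, which randomised all eight P1ex-region intron nucleotides within the knt kanamycin-resistance gene on pET-22b(+). Six replicate transformations grew overnight at 37°C or 30°C on LB agar with or without 25 μg/mL kanamycin, also containing 100 μg/mL carbenicillin, 50 μM IPTG and 0.2% rhamnose, and pooled colonies were amplicon-sequenced on an Illumina HiSeq 2500.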

## AACGAGCAAUAUUACGCUAG
30 °C
  self-splicing fitness (ln): -3.61 ± 0.25
37 °C
  self-splicing fitness (ln): -2.92 ± 0.43

## CCUCAGCAAUAUUACGUUGG
30 °C
  self-splicing fitness (ln): -3.17 ± 0.13
37 °C
  self-splicing fitness (ln): -3.24 ± 0.21

## CCUUAGCAAUAUUACGCUUA
30 °C
  self-splicing fitness (ln): -3.61 ± 0.34
37 °C
  self-splicing fitness (ln): -2.66 ± 0.33

## CAGCAGCAAUAUUACGUCGC
30 °C
  self-splicing fitness (ln): -3.31 ± 0.18
37 °C
  self-splicing fitness (ln): -2.21 ± 0.21

## AGCCAGCAAUAUUACGCUCG
30 °C
  self-splicing fitness (ln): -1.78 ± 0.18
37 °C
  self-splicing fitness (ln): -1.58 ± 0.18

## UCUCAGCAAUAUUACGACGA
30 °C
  self-splicing fitness (ln): -0.256 ± 0.12
37 °C
  self-splicing fitness (ln): -0.879 ± 0.13

## CCAAAGCAAUAUUACGUCGA
30 °C
  self-splicing fitness (ln): -3.66 ± 0.15
37 °C
  self-splicing fitness (ln): -2.92 ± 0.18

## AAAAAGCAAUAUUACGGCAG
30 °C
  self-splicing fitness (ln): -1.32 ± 0.074
37 °C
  self-splicing fitness (ln): -0.434 ± 0.095

## AGAAAGCAAUAUUACGGAAC
30 °C
  self-splicing fitness (ln): -3.04 ± 0.25
37 °C
  self-splicing fitness (ln): -1.84 ± 0.29

## CCGUAGCAAUAUUACGCGUA
30 °C
  self-splicing fitness (ln): -3.69 ± 0.3
37 °C
  self-splicing fitness (ln): -2.06 ± 0.31

## GUCCAGCAAUAUUACGUAUU
30 °C
  self-splicing fitness (ln): -0.819 ± 0.078
37 °C
  self-splicing fitness (ln): -0.174 ± 0.09

## GCAUAGCAAUAUUACGACUC
30 °C
  self-splicing fitness (ln): -0.352 ± 0.16
37 °C
  self-splicing fitness (ln): 0.841 ± 0.13

## GCACAGCAAUAUUACGGUCU
30 °C
  self-splicing fitness (ln): -0.685 ± 0.042
37 °C
  self-splicing fitness (ln): 0.63 ± 0.06

## ACGGAGCAAUAUUACGUCUA
30 °C
  self-splicing fitness (ln): -3.96 ± 0.46
37 °C
  self-splicing fitness (ln): -1.3 ± 0.16

## AAUAAGCAAUAUUACGGGAU
30 °C
  self-splicing fitness (ln): -2.73 ± 0.15
37 °C
  self-splicing fitness (ln): -1.33 ± 0.14

## CUAUAGCAAUAUUACGUCGA
30 °C
  self-splicing fitness (ln): -2.18 ± 0.22
37 °C
  self-splicing fitness (ln): -2.6 ± 0.38

## CCCAAGCAAUAUUACGUCGU
30 °C
  self-splicing fitness (ln): -4.05 ± 0.2
37 °C
  self-splicing fitness (ln): -2.31 ± 0.15

## CCAUAGCAAUAUUACGCUUG
30 °C
  self-splicing fitness (ln): -2.3 ± 0.093
37 °C
  self-splicing fitness (ln): -1.35 ± 0.091

## GGCAAGCAAUAUUACGCGCG
30 °C
  self-splicing fitness (ln): -0.499 ± 0.065
37 °C
  self-splicing fitness (ln): -0.495 ± 0.081

## AUCAAGCAAUAUUACGUCAU
30 °C
  self-splicing fitness (ln): -2.05 ± 0.088
37 °C
  self-splicing fitness (ln): -1.45 ± 0.088

## GGUAAGCAAUAUUACGGAUC
30 °C
  self-splicing fitness (ln): 0.0183 ± 0.15
37 °C
  self-splicing fitness (ln): 0.125 ± 0.21

## AUAAAGCAAUAUUACGAGUC
30 °C
  self-splicing fitness (ln): -3.52 ± 0.13
37 °C
  self-splicing fitness (ln): -2.07 ± 0.14

## UGCUAGCAAUAUUACGGCAA
30 °C
  self-splicing fitness (ln): -0.895 ± 0.16
37 °C
  self-splicing fitness (ln): -1.1 ± 0.16

## GUAAAGCAAUAUUACGUCUG
30 °C
  self-splicing fitness (ln): -1.56 ± 0.11
37 °C
  self-splicing fitness (ln): 0.0989 ± 0.11

## UCCAAGCAAUAUUACGGCCG
30 °C
  self-splicing fitness (ln): -2.7 ± 0.2
37 °C
  self-splicing fitness (ln): -1.41 ± 0.16

## CAUGAGCAAUAUUACGGGGU
30 °C
  self-splicing fitness (ln): -3.25 ± 0.3
37 °C
  self-splicing fitness (ln): -3.38 ± 0.33

## AGCGAGCAAUAUUACGAGUU
30 °C
  self-splicing fitness (ln): -2.61 ± 0.19
37 °C
  self-splicing fitness (ln): -1.21 ± 0.18

## AUCAAGCAAUAUUACGAUCG
30 °C
  self-splicing fitness (ln): -3.37 ± 0.2
37 °C
  self-splicing fitness (ln): -3.55 ± 0.28

## GGCAAGCAAUAUUACGCCAC
30 °C
  self-splicing fitness (ln): -3.87 ± 0.43

## CUGCAGCAAUAUUACGUCGA
30 °C
  self-splicing fitness (ln): -3.05 ± 0.12
37 °C
  self-splicing fitness (ln): -1.65 ± 0.1

## UAUUAGCAAUAUUACGUUCG
30 °C
  self-splicing fitness (ln): -1.13 ± 0.16
37 °C
  self-splicing fitness (ln): -0.121 ± 0.18

## ACGCAGCAAUAUUACGUACA
30 °C
  self-splicing fitness (ln): -2.03 ± 0.11
37 °C
  self-splicing fitness (ln): -0.547 ± 0.12

## AUCGAGCAAUAUUACGAGUG
30 °C
  self-splicing fitness (ln): -3.32 ± 0.3
37 °C
  self-splicing fitness (ln): -2.09 ± 0.32

## UAGGAGCAAUAUUACGCGUG
30 °C
  self-splicing fitness (ln): -2.31 ± 0.12
37 °C
  self-splicing fitness (ln): -0.579 ± 0.12

## CGCUAGCAAUAUUACGCGUC
30 °C
  self-splicing fitness (ln): -3.34 ± 0.32
37 °C
  self-splicing fitness (ln): -3.09 ± 0.39

## UUAUAGCAAUAUUACGUUAC
30 °C
  self-splicing fitness (ln): -4.01 ± 0.43
37 °C
  self-splicing fitness (ln): -3.56 ± 0.37

## UGUGAGCAAUAUUACGGGCA
30 °C
  self-splicing fitness (ln): -0.886 ± 0.069
37 °C
  self-splicing fitness (ln): -0.176 ± 0.081
